In assay [1] the target is T1, DLL4 (DLL4 ECD/His tag, R&D Systems 1506-D4-050) (UniProt Q9NR61 27-529).
T1 construct: extracellular domain; not shown: His tag
In words: Direct bind ELISA on DLL4; DLL4 domain C-term., HC short, LC long.

The target in assay [2] is T2, HGF (UniProt P14210 32-728). In words: SPR (Biacore); C-terminal VD. Background: Surface plasmon resonance follows binding to a sensor surface in real time, without labels.
The target of assay [3] is T3, ErbB3 on A431 cells (human, UniProt P21860 20-1342). Briefly: cell-based or functional assay.
The target of assay [4] is T3, ErbB3 on A431 cells. Briefly: cell-based or functional assay. The source holds these as a separate data set.
For assay [5], the target named is T1, DLL4 (DLL4 ECD/His tag, R&D Systems …). In words: Direct bind ELISA on DLL4; DLL4 domain N-term., HC short, LC long. Background: An ELISA detects its analyte on a solid surface through an enzyme-linked reagent.
A further assay concerns the target T4, IGF-I (UniProt P05019 49-118).
T4 construct: Bought reagent; also called IGF1
In words: Biacore SPR.

For another assay, the target named is T5, IGF-2 (UniProt P01344 25-91).
T5 construct: Bought reagent
Briefly: Biacore SPR.

The next assay has as its target T6, IGF1R ECD (UniProt P08069 31-935, limits assumed).
T6 construct: extracellular domain; Bought reagent
In words: Biacore SPR.

Assay [6] has as its target T2, HGF. In words: SPR (Biacore); parent antibody.

Several values for one entry are separate records, joined by “and”; a condition that tells them apart may be missing. Identical values can stand only once.

T2 sequence (P14210 32-728 limits assumed): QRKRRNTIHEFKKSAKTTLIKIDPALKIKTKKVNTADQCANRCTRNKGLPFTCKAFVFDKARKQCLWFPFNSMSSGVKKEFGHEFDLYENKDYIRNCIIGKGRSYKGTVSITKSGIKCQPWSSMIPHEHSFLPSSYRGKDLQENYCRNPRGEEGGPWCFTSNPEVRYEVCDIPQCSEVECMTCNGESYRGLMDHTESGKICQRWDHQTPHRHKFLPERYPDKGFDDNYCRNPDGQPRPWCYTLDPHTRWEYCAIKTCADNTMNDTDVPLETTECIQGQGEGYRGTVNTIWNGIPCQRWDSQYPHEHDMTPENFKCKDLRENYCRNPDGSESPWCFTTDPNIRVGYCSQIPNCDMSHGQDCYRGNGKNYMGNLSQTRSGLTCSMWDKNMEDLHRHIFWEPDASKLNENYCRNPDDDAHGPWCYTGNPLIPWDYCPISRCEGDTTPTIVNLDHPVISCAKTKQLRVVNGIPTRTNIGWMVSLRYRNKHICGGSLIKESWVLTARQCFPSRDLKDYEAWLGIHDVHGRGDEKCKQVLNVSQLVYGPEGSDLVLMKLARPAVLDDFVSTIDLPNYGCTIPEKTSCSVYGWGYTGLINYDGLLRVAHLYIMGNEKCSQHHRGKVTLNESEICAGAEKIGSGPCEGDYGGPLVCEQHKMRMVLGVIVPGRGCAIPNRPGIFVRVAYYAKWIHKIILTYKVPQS

B1: DVD484 (VEGF/DLL4 DVD-Ig) (bispecific antibody, human IgG1)
VH: EVQLVESGGGLVQPGGSLRLSCAASGFTISDYWIHWVRQAPGKGLEWVAGITPAGGYTYYADSVKGRFTISADTSKNTAYLQMNSLRAEDTAVYYCARFVFFLPYAMDYWGQGTLVTVSSASTKGPEVQLVESGGGLVQPGGSLRLSCAASGFTFTDNWISWVRQAPGKGLEWVGYISPNSGFTYYADSVKGRFTISADTSKNTAYLQMNSLRAEDTAVYYCARDNFGGYFDYWGQGTLVTVSS
VL: DIQMTQSPSSLSASVGDRVTITCRASQDVSTAVAWYQQKPGKAPKLLIYSASFLYSGVPSRFSGSGSGTDFTLTISSLQPEDFATYYCQQSYTTPPTFGQGTKVEIKRTVAAPSVFIFPPDIQMTQSPSSLSASVGDRVTITCRASQDVSTAVAWYQQKPGKAPKLLIYSASFLYSGVPSRFSGSGSGTDFTLTISSLQPEDFATTYYCQQSYTGTVTFGQGTKVEIKR
notes: HC linker short, LC linker long; also called DVD484H; DVD484L
With B1, the response in assay [1] was half-maximal at 1.75 nM (EC50).

B2: DVD045 (bispecific antibody, human IgG1, kappa)
heavy: not shown
light: DIQMTQSPSSLSASVGDRVTITCSASQDISNYLNWYQQKPGKAPKVLIYFTSSLHSGVPSRFSGSGSGTDFTLTISSLQPEDFATYYCQQYSTVPWTFGQGTKVEIKRTVAAPDIQMTQSPSSVSASVGDRVTITCRASQGISSWLAWYQQKPGKAPNLLIYEASSLQSGVPSRFGGSGSGTDFTLTISSLQPEDFATYYCQQANGFPWTFGQGTKVEIKRTVAAPSVFIFPPSDEQLKSGTASVVCLLNNFYPREAKVQWKVDNALQSGNSQESVTEQDSKDSTYSLSSTLTLSKADYEKHKVYACEVTHQGLSSPVTKSFNRGEC
notes: N-terminal VD VEGF, C-terminal VD HGF; also called DVD045H; DVD045L
For B2, in the assay with HGF [2], the Kd – broadly, the constant that tells how readily two partners part at equilibrium – came to 0.901 nM; the koff (commonly a measure of how fast the partners let go of each other) was 0.000166 s⁻¹; the kon (as a rule, the rate constant with which the complex forms) amounted to 184000 M⁻¹ s⁻¹.

B3: AB062 (anti-ErbB3 (seq. 1) parent antibody) (antibody, human IgG1, kappa, V domains shown)
VH: QVQLQQWGAGLLKPSETLSLTCAVYGGSFSGYYWSWIRQPPGKGLEWIGEINHSGSTNYNPSLKSRVTISVETSKNQFSLKLSSVTAADTAVYYCARDKWTWYFDLWGRGTLVTVSS
VL: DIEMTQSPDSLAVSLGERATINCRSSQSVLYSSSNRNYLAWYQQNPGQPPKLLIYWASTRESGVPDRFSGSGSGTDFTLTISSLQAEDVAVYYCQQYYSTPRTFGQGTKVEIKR
Take B3: in the assay with ErbB3 on A431 cells [3], the “Inhibition Of EGFR Phosphorylation (% Inhibition At 60 nM Ab/DVD)” value amounted to 0% and the “Inhibition Of ErbB3 Phosphorylation (% Inhibition At 60 nM Ab/DVD)” value was found to be 72%. Moreover, in the assay with ErbB3 on A431 cells [4], the “Inhibition Of A431 Proliferation (% Inhibition At 2.4 nM Ab/DVD)” value was 14% and the “Inhibition Of A431 Proliferation (% Inhibition At 21.6 nM Ab/DVD)” value was 27%.

B4: DVD531 (DLL4/VEGF DVD-Ig) (bispecific antibody, human IgG1)
VH: EVQLQQSGPELEKPGASVKISCKASGYSFTGYNMNWVKQSNGKSLEWIGNIDPYFGGTNYNQKFKGKATLTVDKSSSTAYMQLKSLTSEDSAVYYCARNYDYDGGCFDYWGQGTTLTVSSASTKGPEVQLVESGGGLVQPGGSLRLSCAASGFTISDYWIHWVRQAPGKGLEWVAGITPAGGYTYYADSVKGRFTISADTSKNTAYLQMNSLRAEDTAVYYCARFVFFLPYAMDYWGQGTLVTVSS
VL: QAVVTQESALTTSPGETVTLTCRSSTGAVTTSNYANWVQEKPDHLFTGLIGGTNNRAPGVPARFSGSLIGDKAALTITGAQTEDEAIYFCALWYSNHWVFGGGTKLTVLGQPKAAPSVTLFPPDIQMTQSPSSLSASVGDRVTITCRASQDVSTAVAWYQQKPGKAPKLLIYSASFLYSGVPSRFSGSGSGTDFTLTISSLQPEDFATYYCQQSYTTPPTFGQGTKVEIKR
notes: HC linker short, LC linker long; also called DVD531H; DVD531L
With B4, a half-maximal effect in assay [5] (EC50) was put at 0.57 nM.

B5: AB010 (antibody, human IgG1, lambda, V domains shown)
VH: QVQLVQSGAEVKKPGASVKVSCKASGYTFTSYDINWVRQATGQGLEWMGWMNPNSGNTGYAQKFQGRVTMTRNTSISTAYMELSSLRSEDTAVYYCARDPYYYYYGMDVWGQGTTVTVSS
VL: QSVLTQPPSVSAAPGQKVTISCSGSSSNIENNHVSWYQQLPGTAPKLLIYDNNKRPSGIPDRFSGSKSGTSATLGITGLQTGDEADYYCETWDTSLSAGRVFGGGTKLTVLG
notes: also called anti-IGF1,2 parent antibody
In the assay with IGF-I, B5 returned a Kd of 0.388 nM, a koff of 0.00123 s⁻¹ and a kon of 3.17e+06 M⁻¹ s⁻¹. Moreover, in the assay with IGF-2, the Kd was 0.000423 nM and < 0.000299 nM; the koff was 2.74e-06 s⁻¹ and < 1e-06 s⁻¹; the on-rate constant (kon) is 6.47e+06 M⁻¹ s⁻¹ and 3.35e+06 M⁻¹ s⁻¹.

B6: AB011 (antibody, human IgG1, kappa, V domains shown)
VH: EVQLLESGGGLVQPGGSLRLSCTASGFTFSSYAMNWVRQAPGKGLEWVSAISGSGGTTFYADSVKGRFTISRDNSRTTLYLQMNSLRAEDTAVYYCAKDLGWSDSYYYYYGMDVWGQGTTVTVSS
VL: DIQMTQFPSSLSASVGDRVTITCRASQGIRNDLGWYQQKPGKAPKRLIYAASRLHRGVPSRFSGSGSGTEFTLTISSLQPEDFATYYCLQHNSYPCSFGQGTKLEIKR
On to B6, for which, in the assay with IGF1R ECD, the Kd was 0.848 nM, the koff turned out to be 6.21e-05 s⁻¹ and the kon worked out at 73200 M⁻¹ s⁻¹.

B7: DVD508 (VEGF/DLL4 DVD-Ig) (bispecific antibody, human IgG1)
VH: EVQLVESGGGLVQPGGSLRLSCAASGFTISDYWIHWVRQAPGKGLEWVAGITPAGGYTYYADSVKGRFTISADTSKNTAYLQMNSLRAEDTAVYYCARFVFFLPYAMDYWGQGTLVTVSSASTKGPEVQLQQSGPELVKPGASVKMSCKASGYTFTSYVINWVKQKPGQGLEWIGLINPYNDGTKYNEKFKVKATLTSDKSSSTAYMELSSLTSEDSAVYYCASYYYGSRYYFDYWGQGTTLTVSS
VL: DIQMTQSPSSLSASVGDRVTITCRASQDVSTAVAWYQQKPGKAPKLLIYSASFLYSGVPSRFSGSGSGTDFTLTISSLQPEDFATYYCQQSYTTPPTFGQGTKVEIKRTVAAPSVFIFPPDIQMTQSSSYLSVSLGGRVTITCKASDHINNWLAWYQQKPGNAPRLLISGATSLETGVPSRFSGSGSGKDYTLSITSLQTEDVATYYCQQYWSIPLTFGAGTKLELKR
notes: HC linker short, LC linker long; also called DVD508H; DVD508L
B7: in [1], the midpoint of the response, the EC50, lay at 0.61 nM. In other words, the sub-nanomolar range.

B8: DVD462 (VEGF/DLL4 DVD-Ig) (bispecific antibody, human IgG1)
VH: EVQLVESGGGLVQPGGSLRLSCAASGFTISDYWIHWVRQAPGKGLEWVAGITPAGGYTYYADSVKGRFTISADTSKNTAYLQMNSLRAEDTAVYYCARFVFFLPYAMDYWGQGTLVTVSSASTKGPQVQLVQSGAEVKKPGASVKISCKASGYSFTAYYIHWVKQAPGQGLEWIGYISSYNGATNYNQKFKGRVTFTTDTSTSTAYMELRSLRSDDTAVYYCARDYDYDVGMDYWGQGTLVTVSS
VL: DIQMTQSPSSLSASVGDRVTITCRASQDVSTAVAWYQQKPGKAPKLLIYSASFLYSGVPSRFSGSGSGTDFTLTISSLQPEDFATYYCQQSYTTPPTFGQGTKVEIKRTVAAPSVFIFPPDIVMTQSPDSLAVSLGERATISCRASESVDNYGISFMKWFQQKPGQPPKLLIYAASNQGSGVPDRFSGSGSGTDFTLTISSLQAEDVAVYYCQQSKEVPWTFGGGTKVEIKR
notes: HC linker short, LC linker long; also called DVD462H; DVD462L
As to B8, the EC50 – broadly, the concentration needed to bring the measured effect to its halfway point – in assay [1] turned out to be 7.99 nM. Against the preceding molecule, the EC50 is about 13-fold higher.

B9: DVD532 (VEGF/DLL4 DVD-Ig) (bispecific antibody, human IgG1)
VH: EVQLVESGGGLVQPGGSLRLSCAASGFTISDYWIHWVRQAPGKGLEWVAGITPAGGYTYYADSVKGRFTISADTSKNTAYLQMNSLRAEDTAVYYCARFVFFLPYAMDYWGQGTLVTVSSASTKGPEVQLQQSGPELEKPGASVKISCKASGYSFTGYNMNWVKQSNGKSLEWIGNIDPYFGGTNYNQKFKGKATLTVDKSSSTAYMQLKSLTSEDSAVYYCARNYDYDGGCFDYWGQGTTLTVSS
VL: DIQMTQSPSSLSASVGDRVTITCRASQDVSTAVAWYQQKPGKAPKLLIYSASFLYSGVPSRFSGSGSGTDFTLTISSLQPEDFATYYCQQSYTTPPTFGQGTKVEIKRTVAAPSVFIFPPQAVVTQESALTTSPGETVTLTCRSSTGAVTTSNYANWVQEKPDHLFTGLIGGTNNRAPGVPARFSGSLIGDKAALTITGAQTEDEAIYFCALWYSNHWVFGGGTKLTVLG
notes: HC linker short, LC linker long; also called DVD532H; DVD532L
As for B9, the EC50 in [1] was determined as 1.43 nM. This EC50 is about 5.6-fold lower than that of the molecule before.

B10: AB012 (antibody, human IgG1, kappa, V domains shown)
VH: QVQLVESGGGLVKPGGSLRLSCAASGFTFSDYYMSWIRQAPGKGLEWVSYISSSGSTIYYADSVKGRFTISRDNAKNSLYLQMNSLRAEDTAVYYCARDEYNSGWYVLFDYWGQGTLVTVSS
VL: DIQMTQSPSSVSASVGDRVTITCRASQGISSWLAWYQQKPGKAPNLLIYEASSLQSGVPSRFGGSGSGTDFTLTISSLQPEDFATYYCQQANGFPWTFGQGTKVEIKR
notes: also called AB012VH; AB012VL
Regarding B10, in the assay with HGF [6], the Kd is below 0.0284 nM, the koff stood at 0.000284 s⁻¹ and the kon is above 1e+07 M⁻¹ s⁻¹.

B11: DVD461 (DLL4/VEGF DVD-Ig) (bispecific antibody, human IgG1)
VH: QVQLVQSGAEVKKPGASVKISCKASGYSFTAYYIHWVKQAPGQGLEWIGYISSYNGATNYNQKFKGRVTFTTDTSTSTAYMELRSLRSDDTAVYYCARDYDYDVGMDYWGQGTLVTVSSASTKGPEVQLVESGGGLVQPGGSLRLSCAASGFTISDYWIHWVRQAPGKGLEWVAGITPAGGYTYYADSVKGRFTISADTSKNTAYLQMNSLRAEDTAVYYCARFVFFLPYAMDYWGQGTLVTVSS
VL: DIVMTQSPDSLAVSLGERATISCRASESVDNYGISFMKWFQQKPGQPPKLLIYAASNQGSGVPDRFSGSGSGTDFTLTISSLQAEDVAVYYCQQSKEVPWTFGGGTKVEIKRTVAAPSVFIFPPDIQMTQSPSSLSASVGDRVTITCRASQDVSTAVAWYQQKPGKAPKLLIYSASFLYSGVPSRFSGSGSGTDFTLTISSLQPEDFATYYCQQSYTTPPTFGQGTKVEIKR
notes: HC linker short, LC linker long; also called DVD461H; DVD461L
B11: it took 0.52 nM to reach a half-maximal effect in assay [5] (EC50).

B12: DVD507 (DLL4/VEGF DVD-Ig) (bispecific antibody, human IgG1)
VH: EVQLQQSGPELVKPGASVKMSCKASGYTFTSYVINWVKQKPGQGLEWIGLINPYNDGTKYNEKFKVKATLTSDKSSSTAYMELSSLTSEDSAVYYCASYYYGSRYYFDYWGQGTTLTVSSASTKGPEVQLVESGGGLVQPGGSLRLSCAASGFTISDYWIHWVRQAPGKGLEWVAGITPAGGYTYYADSVKGRFTISADTSKNTAYLQMNSLRAEDTAVYYCARFVFFLPYAMDYWGQGTLVTVSS
VL: DIQMTQSSSYLSVSLGGRVTITCKASDHINNWLAWYQQKPGNAPRLLISGATSLETGVPSRFSGSGSGKDYTLSITSLQTEDVATYYCQQYWSIPLTFGAGTKLELKRTVAAPSVFIFPPDIQMTQSPSSLSASVGDRVTITCRASQDVSTAVAWYQQKPGKAPKLLIYSASFLYSGVPSRFSGSGSGTDFTLTISSLQPEDFATYYCQQSYTTPPTFGQGTKVEIKR
notes: HC linker short, LC linker long; also called DVD507H; DVD507L
On to B12, for which a half-maximal response in [5] (EC50) required 0.71 nM.

(Values after patent US20100260668A1 (published 2010).)
